This data set concerns the target MexR (Pseudomonas aeruginosa, UniProt P52003). As to the kind of experiment: ITC; one set of sites; N = 4.0 ± 0.1; dH 122.3 ± 5.2 kJ/mol; ITC: 20 mM NaPO4 pH 7.0, 150 mM NaCl, 5 mM beta-mercaptoethanol, 20 C; SEC of the complex: 20 mM HEPES, 150 mM NaCl, 2 mM TCEP. Particulars: protein: recombinant; tags: N-terminal His6-Trx removed by TEV; residual SM; chain copies: 4; blunt.

The term Kd denotes the equilibrium constant for the complex coming apart.

Sequence of MexR (P52003 5-139, tags or fused parts left off): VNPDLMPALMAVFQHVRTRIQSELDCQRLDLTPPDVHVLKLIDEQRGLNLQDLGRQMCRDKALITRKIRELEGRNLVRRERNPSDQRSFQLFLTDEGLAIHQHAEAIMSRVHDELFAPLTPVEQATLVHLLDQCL

B1: 60 bp mexR-mexA operator DNA (PI+PII) (dsDNA)
DNA 1: AAATGTGGTTGATCCAGTCAACTATTTTGCTTATTTTAGTTGACCTTATCAACCTTGTTT
DNA 2: AAACAAGGTTGATAAGGTCAACTAAAATAAGCAAAATAGTTGACTGGATCAACCACATTT
As to B1, the Kd is 206 ± 52 nM.

The values are drawn from publication doi:10.1101/2024.04.02.587325, “Structural characterization of the Pseudomonas Aeruginosa MexR–mexR repressor-operator complex: a small-angle X-ray and neutron scattering perspective”.
